Experiments:
Assay in all cases: ELISA, plate coated with 1 µg/mL B7 family protein
[1] = target: T1, Human B7-1/CD80 Protein, Fc Tag (Acro B71-H5259) (human, UniProt P33681 35-242)
T1 construct: Bought protein
T1 sequence (looked up): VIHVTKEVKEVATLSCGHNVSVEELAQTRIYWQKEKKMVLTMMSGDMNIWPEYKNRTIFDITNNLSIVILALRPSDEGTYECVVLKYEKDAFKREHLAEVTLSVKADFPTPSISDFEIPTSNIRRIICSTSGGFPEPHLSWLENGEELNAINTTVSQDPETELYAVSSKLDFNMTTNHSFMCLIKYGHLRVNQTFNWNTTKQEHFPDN
Protocol: (§1) The proteins of the B7 family (see Table 9-1 for details) were each diluted to 1 μg/mL with PBS, added to a 96-well plate (Corning, #9018) at 100 μL per well, and incubated overnight at 4° C. After the liquid was discarded, the plate was washed 3 times with PBST buffer (pH 7.4, containing 0.05% tween-20), and 250 μL of 2% BSA blocking buffer was added. The plate was incubated at 37° C. for 1 hour. The blocking buffer was discarded, and the plate was washed 3 times with PBST buffer (pH 7.4, containing 0.05% Tween-20). The test antigen-binding protein was diluted to 2 concentrations: 10 nM and 1 nM, and added at 100 μL per well. The plate was incubated at 37° C. for 1 hour. An isotype antibody was taken as a control. After the plate was washed 3 times with PBST buffer (pH 7.4, containing 0.05% Tween-20), the plate was added with a 5000-fold diluted goat anti-human F(ab′)₂ HRP secondary antibody (Jackson ImmunoResearch, 109-035-097), and incubated at 37° C. away from light for 1 hour. After the plate was washed 3 times with PBST buffer (pH 7.4, containing 0.05% Tween-20), TMB (Biopanda, #TMB-S-003) was added at 100 μL/well. The plate was left away from light at room temperature for about 30 minutes. The reactions were terminated by adding 50 μL of stop buffer (BBI life sciences, #E661006-0200) to each well, and the absorbance values at 450 nm (OD450) was measured using a microplate reader (PerkinElemer, #Enspire).

[2] = target: T2, Human B7-2/CD86 Protein, Fc Tag (Acro CD6-H5257) (human, UniProt P42081 26-247)
T2 construct: Bought protein
T2 sequence (looked up): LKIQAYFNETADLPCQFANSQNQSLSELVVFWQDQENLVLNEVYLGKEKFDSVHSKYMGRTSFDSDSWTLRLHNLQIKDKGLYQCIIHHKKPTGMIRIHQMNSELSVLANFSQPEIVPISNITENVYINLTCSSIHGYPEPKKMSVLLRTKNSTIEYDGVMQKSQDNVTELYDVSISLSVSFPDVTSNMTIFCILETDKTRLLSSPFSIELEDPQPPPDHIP
Protocol: as §1

[3] = target: T3, Human B7-DC/PD-L2/CD273 Protein, Recombinant (Fc Tag) (Sino Biological H10292-H02H) (human, UniProt Q9BQ51 20-219)
T3 construct: Bought protein
T3 sequence (looked up): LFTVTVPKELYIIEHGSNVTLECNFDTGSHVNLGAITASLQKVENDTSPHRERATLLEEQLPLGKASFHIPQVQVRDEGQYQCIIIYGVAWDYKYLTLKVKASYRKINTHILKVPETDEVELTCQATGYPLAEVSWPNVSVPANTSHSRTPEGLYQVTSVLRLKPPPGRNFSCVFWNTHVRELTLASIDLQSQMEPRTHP
Protocol: as §1

[4] = target: T4, Human PD-L1/B7-H1 Protein, His Tag (Acro PD1-H5229) (human, UniProt Q9NZQ7 19-238)
T4 construct: Bought protein
Protocol: as §1

[5] = target: T5, CD275/ICOS ligand Protein, Human, Recombinant (Fc Tag) (Sino Biological 11559-H02H) (human, UniProt O75144 19-258)
T5 construct: Bought protein; also called B7H2
T5 sequence (looked up): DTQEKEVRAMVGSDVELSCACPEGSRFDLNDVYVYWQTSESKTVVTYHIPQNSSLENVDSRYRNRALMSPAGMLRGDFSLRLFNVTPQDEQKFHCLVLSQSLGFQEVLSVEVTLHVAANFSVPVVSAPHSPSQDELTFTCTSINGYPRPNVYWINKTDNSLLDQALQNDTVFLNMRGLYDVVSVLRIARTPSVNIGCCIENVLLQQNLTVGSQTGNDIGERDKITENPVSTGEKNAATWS
Protocol: as §1

[6] = target: T6, B7-H3/CD276 Protein, Human, Recombinant (ECD, Fc Tag) (Sino Biological 11188-H02H) (human, UniProt Q5ZPR3 29-466)
T6 construct: extracellular domain; Bought protein
T6 sequence (looked up): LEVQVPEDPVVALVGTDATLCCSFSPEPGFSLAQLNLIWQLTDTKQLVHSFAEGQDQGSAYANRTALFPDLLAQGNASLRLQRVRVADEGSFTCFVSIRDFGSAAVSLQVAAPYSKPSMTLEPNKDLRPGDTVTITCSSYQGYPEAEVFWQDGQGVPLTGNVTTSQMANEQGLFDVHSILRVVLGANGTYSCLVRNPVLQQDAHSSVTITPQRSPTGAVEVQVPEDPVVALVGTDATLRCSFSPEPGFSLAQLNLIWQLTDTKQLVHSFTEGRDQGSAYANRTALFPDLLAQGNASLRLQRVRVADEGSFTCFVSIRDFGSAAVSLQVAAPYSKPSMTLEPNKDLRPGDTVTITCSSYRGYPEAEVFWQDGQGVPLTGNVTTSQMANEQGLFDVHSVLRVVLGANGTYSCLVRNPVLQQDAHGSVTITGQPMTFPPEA
Protocol: as §1

[7] = target: T7, Recombinant human VISTA/B7H5/PD-1H Fc Chimera (R&D 7126-B7-050) (human, UniProt Q9H7M9 33-194)
T7 construct: Bought protein
T7 sequence (looked up): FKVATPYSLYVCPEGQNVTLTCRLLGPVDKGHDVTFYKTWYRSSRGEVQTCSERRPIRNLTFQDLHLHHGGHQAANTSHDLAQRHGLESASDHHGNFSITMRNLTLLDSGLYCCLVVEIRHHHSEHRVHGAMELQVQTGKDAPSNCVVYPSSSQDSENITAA
Protocol: as §1

[8] = target: T8, B7-H6/NCR3LG1 Protein, Human, Recombinant (Fc Tag) (Sino Biological 16140-H02H) (human, UniProt Q68D85 25-262)
T8 construct: Bought protein
T8 sequence (looked up): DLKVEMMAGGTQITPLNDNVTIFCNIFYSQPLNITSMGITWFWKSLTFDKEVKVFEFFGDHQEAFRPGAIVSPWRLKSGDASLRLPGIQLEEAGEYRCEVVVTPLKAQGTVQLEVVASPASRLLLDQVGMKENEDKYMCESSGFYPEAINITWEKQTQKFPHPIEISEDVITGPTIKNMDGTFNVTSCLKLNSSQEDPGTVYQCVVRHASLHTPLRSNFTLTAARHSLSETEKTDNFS
Protocol: as §1

[9] = target: T9, Recombinant human B7H7/HHLA2 Fc Chimera (R&D 8084-B7-050) (human, UniProt Q9UM44 23-344)
T9 construct: Bought protein
T9 sequence (looked up): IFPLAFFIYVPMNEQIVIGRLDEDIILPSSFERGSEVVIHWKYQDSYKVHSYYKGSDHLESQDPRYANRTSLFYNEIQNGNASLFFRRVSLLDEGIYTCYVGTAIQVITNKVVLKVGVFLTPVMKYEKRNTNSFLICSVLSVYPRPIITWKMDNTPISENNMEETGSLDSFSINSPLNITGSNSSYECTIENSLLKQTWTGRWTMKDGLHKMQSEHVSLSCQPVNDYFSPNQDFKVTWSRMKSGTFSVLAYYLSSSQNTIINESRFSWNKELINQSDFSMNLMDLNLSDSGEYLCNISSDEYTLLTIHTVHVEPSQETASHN
Protocol: as §1

Measured: binding result

T4 sequence (Q9NZQ7 19-238 limits assumed): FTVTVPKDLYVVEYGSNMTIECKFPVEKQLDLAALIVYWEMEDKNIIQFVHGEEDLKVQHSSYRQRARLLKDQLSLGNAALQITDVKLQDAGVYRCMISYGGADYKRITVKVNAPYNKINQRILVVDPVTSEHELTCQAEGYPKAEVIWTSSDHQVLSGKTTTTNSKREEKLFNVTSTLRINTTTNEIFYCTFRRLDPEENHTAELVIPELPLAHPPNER

B1: PR002418 (antibody, human IgG1, kappa, V domains shown)
VH: QVQLVESGGGVVQPGRSLRLSCAASGFTFRSFGMHWVRQAPGKGLEWVAVISYDASNEYYADSVKGRFIISRDNSKDTLYLQMNSLRAGDTAVYYCAKGGGLRWYFAYWGQGTLVTVSS
VL: EIVMTQSPATLSVSPGERATLSCRASQSISSNLGWYQQKPGQAPRLLIYGASTRATGIPARFSGSGSGTEFTLTISSLQSEDFAVYYCQQYQSWPPLTFGGGTKVEIKR
notes: PTM variant/DE mutant of PR001476 (H: G55A; L: N92Q; Fc S239D, I332E), human IgG1
no binding (tested: 10 nM): [1] | [2] | [3] | [4] | [5] | [6] | [7] | [8] | [9]

From patent US20230312722A1 (NONA BIOSCIENCES SUZHOU, published 2023)
